In patent publication US20150267232A1, “IN VIVO AND IN VITRO CARBENE INSERTION AND NITRENE TRANSFER REACTIONS CATALYZED BY HEME ENZYMES” (California Institute of Technology, priority 2012, published 2015):
Changes are numbered by the printed parent chain. In names and notes the source's numbering stands.

B1: ABC-CIS: BM3-CIS + C400S (protein, listed as Bacillus megaterium)
chain: TIKEMPQPKTFGELKNLPLLNTDKPVQALMKIADELGEIFKFEAPGRVTRYLSSQRLIKEACDESRFDKNLSQALKFARDFAGDGLVTSWTHEKNWKKAHNILLPSFSQQAMKGYHAMMVDIAVQLVQKWERLNADEHIEVSEDMTRLTLDTIGLCGFNYRFNSFYRDQPHPFIISMVRALDEVMNKLQRANPDDPAYDENKRQFQEDIKVMNDLVDKIIADRKARGEQSDDLLTQMLNGKDPETGEPLDDGNIRYQIITFLIAGHEATSGLLSFALYFLVKNPHVLQKVAEEAARVLVDPVPSYKQVKQLKYVGMVLNEALRLWPTAPAFSLYAKEDTVLGGEYPLEKGDEVMVLIPQLHRDKTVWGDDVEEFRPERFENPSAIPQHAFKPFGNGQRASIGQQFALHEATLVLGMMLKHFDFEDHTNYELDIKETLTLKPKGFVVKAKSKKIPLGGIPSPSTEQSAKKVRKKAENAHNTPLLVLYGSNMGTAEGTARDLADIAMSKGFAPQVATLDSHAGNLPREGAVLIVTASYNGHPPDNAKQFVDWLDQASADEVKGVRYSVFGCGDKNWATTYQKVPAFIDETLAAKGAENIADRGEADASDDFEGTYEEWREHMWSDVAAYFNLDIENSEDNKSTLSLQFVDSAADMPLAKMHGAFSTNVVASKELQQPGSARSTRHLEIELPKEASYQEGDHLGVIPRNYEGIVNRVTARFGLDASQQIRLEAEEEKLAHLPLAKTVSVEELLQYVELQDPVTRTQLRAMAAKTVCPPHKVELEALLEKQAYKEQVLAKRLTMLELLEKYPACEMKFSEFIALLPSIRPRYYSISSSPRVDEKQASITVSVVSGEAWSGYGEYKGIASNYLAELQEGDTITCFISTPQSEFTLPKDPETPLIMVGPGTGVAPFRGFVQARKQLKEQGQSLGEAHLYFGCRSPHEDYLYQEELENAQSEGIITLHTAFSRMPNQPKTYVQHVMEQDGKKLIELLDQGAHFYICGDGSQMAPAVEATLMKSYADVHQVSEADARLWLQQLEEKGRYAKDVWAG
modifications: cytochrome P450NADPH-P-450 reductase precursor, cytochrome P450 (BM3), CYP102A1
notes: BM3-CIS + C400S
B2: P450BM3: wild-type cytochrome P450BM3 from Bacillus megaterium (SEQ ID NO: 1) (protein, listed as Bacillus megaterium)
chain: TIKEMPQPKTFGELKNLPLLNTDKPVQALMKIADELGEIFKFEAPGRVTRYLSSQRLIKEACDESRFDKNLSQALKFVRDFAGDGLFTSWTHEKNWKKAHNILLPSFSQQAMKGYHAMMVDIAVQLVQKWERLNADEHIEVPEDMTRLTLDTIGLCGFNYRFNSFYRDQPHPFITSMVRALDEAMNKLQRANPDDPAYDENKRQFQEDIKVMNDLVDKIIADRKASGEQSDDLLTHMLNGKDPETGEPLDDENIRYQIITFLIAGHETTSGLLSFALYFLVKNPHVLQKAAEEAARVLVDPVPSYKQVKQLKYVGMVLNEALRLWPTAPAFSLYAKEDTVLGGEYPLEKGDELMVLIPQLHRDKTIWGDDVEEFRPERFENPSAIPQHAFKPFGNGQRACIGQQFALHEATLVLGMMLKHFDFEDHTNYELDIKETLTLKPEGFVVKAKSKKIPLGGIPSPSTEQSAKKVRKKAENAHNTPLLVLYGSNMGTAEGTARDLADIAMSKGFAPQVATLDSHAGNLPREGAVLIVTASYNGHPPDNAKQFVDWLDQASADEVKGVRYSVFGCGDKNWATTYQKVPAFIDETLAAKGAENIADRGEADASDDFEGTYEEWREHMWSDVAAYFNLDIENSEDNKSTLSLQFVDSAADMPLAKMHGAFSTNVVASKELQQPGSARSTRHLEIELPKEASYQEGDHLGVIPRNYEGIVNRVTARFGLDASQQIRLEAEEEKLAHLPLAKTVSVEELLQYVELQDPVTRTQLRAMAAKTVCPPHKVELEALLEKQAYKEQVLAKRLTMLELLEKYPACEMKFSEFIALLPSIRPRYYSISSSPRVDEKQASITVSVVSGEAWSGYGEYKGIASNYLAELQEGDTITCFISTPQSEFTLPKDPETPLIMVGPGTGVAPFRGFVQARKQLKEQGQSLGEAHLYFGCRSPHEDYLYQEELENAQSEGIITLHTAFSRMPNQPKTYVQHVMEQDGKKLIELLDQGAHFYICGDGSQMAPAVEATLMKSYADVHQVSEADARLWLQQLEEKGRYAKDVWAG
modifications: cytochrome P450NADPH-P-450 reductase precursor, cytochrome P450 (BM3), CYP102A1
B3: BM3-T268A: P450BM3 variant: T268A (protein, listed as Bacillus megaterium)
chain: B2 chain with T268A
modifications: cytochrome P450NADPH-P-450 reductase precursor, cytochrome P450 (BM3), CYP102A1
B4: ABC-T268A: P450BM3 variant: T268A, C400S (protein, listed as Bacillus megaterium)
chain: B2 chain with T268A, C400S
modifications: cytochrome P450NADPH-P-450 reductase precursor, cytochrome P450 (BM3), CYP102A1
notes: P450BM3 variant: T268A, C400S

Assay: N—H insertion, aniline with ethyl diazo acetate (EDA)
Format: biochemical
Conditions: for TTn / % Yield: protein 10 uM, EDA 8.5 mM, aniline 20 mM, Na2S2O4 10 mM, 12 h; for % Yield: product 4.3
Text: We have found a variety of P450 variants to be general catalysts for carbenoid N—H insertion. We combined aniline with EDA in the presence of a reductant (Na2S2O4) under argon atmosphere and tested the mixture with seven P450BM3 variants previously identified as competent catalysts for cyclopropanation (Coelho, P. et al., Science. 2013, 339, 307-310). In choosing this set of P450s, we hypothesized that cyclopropanation activity could correlate with ability to generate the iron-carbenoid intermediate that is also necessary for N—H insertion. Whereas wild type BM3 (WT-BM3 (SEQ ID NO:1), Table 20, entry 1) provided only trace amounts of the desired product (4.3), a few variants gave 4.3 in good yields after 12 h at room temperature. In particular, variant H2-5-F10 which is derived from a thermostable P450BM3 lineage (Lewis, J. C. et al. ChemBioChem, 2010, 11, 2502-2505) and contains 15 mutation from WT-BM3 (SEQ ID NO:1), formed 4.3 in 47% yield and 473 turnovers (TTN) using 0.1% protein relative to EDA (entry 7). […] In contrast, when 1 mol % of the isolated hemin prosthetic group was used as catalyst, the single and double insertion products were produced in a 3.5 to 1 ratio (with a total product yield of 51%).
A representative procedure for P450-catalyzed N—H insertion is as follows. To an unsealed crimp vial, 60 μL of a P450 solution (67 or 133 μM) was added and the vial was sealed. A 12.5 mM solution of sodium dithionite in phosphate buffer (0.1 M, pH=8.0) was degassed by bubbling with argon in a 6 mL crimp-sealed vial. The headspace of the 2 mL vials containing P450 solution were flushed with argon (no bubbling). The buffer/dithionite solution (360 μL) was then added to each reaction vial via syringe, and the gas lines were disconnected from the vials. 10 μL of an 800 mM stock of aniline was added via a glass syringe, followed by 10 μL of a 340 mM stock of EDA (both stocks in MeOH). The reaction vials were then placed in a tray on a plate shaker and left to shake at 40 rpm. The final concentrations of the reagents were typically: 20 mM aniline, 8.5 mM EDA, 10 mM Na2S2O4, and 10 or 20 μM P450. After 12 h at 25° C., the vials were removed from the shaker and uncapped and 1 mL of cyclohexane was added, followed by 20 μL of a 20 mM solution of phenethyl alcohol (internal standard). The mixture was transferred to a 1.5 mL Eppendorf tube and vortexed and centrifuged (13,000×g, 1 min.). The organic layer was dried over sodium sulfate if necessary then analyzed by GC, with comparison to an authentically prepared sample that has been verified by proton NMR ([…], Varian, CDCl3).
Substitution is well-tolerated on the aniline partner on both the ortho and para positions. Reactions were analyzed by a Shimadzu GC with FID detector and J&W HP-5 column (30 m×0.32 mm, 0.25 μm film) and calibrated to an independently prepared sample of each product using phenethyl alcohol as internal standard. Reaction of aniline and EDA was also performed in milligram scale without any organic cosolvent to provide 4.3 in 65% isolated yield.
Calibration curves were plotted as follows. Yields of N—H insertion products were determined using calibration curves made with independently synthesized standards that have been verified by proton NMR, with comparison to known literature data (Baumann, L. K. et al. Organometallics. 2007, 26, 3995-4002; Anding, B. J. et al. Organometallics. 2013, 32, 2599-2607). Two stock solutions of product were made at 160 mM and 40 mM. To four or five samples containing 380 μL of buffer, product was added from either of the stock solutions such at a final concentration of 0.5-8.0 mM in 400 μL was obtained. 20 μL of internal standard was added to each eppendorf tube, then 1 mL of cyclohexane was added and the tubes were vortexed and centrifuged (13,000 ×g, 30 seconds). The organic layer was then analyzed by GC. The ratio of the areas under the internal standard and product peaks were plotted against the concentration for each solution. […]

Molecule | ratio of single to double insertion products (1 mol % hemin) | total product yield (1 mol % hemin) | TTn | % Yield | % Yield (listed as BM3-WT) | % Yield (listed as WT-BM3)
hemin | 3.5 to 1 | 51% |  |  |  | 
B1 |  |  | 136 | 14% |  | 
B2 |  |  | 17 |  | 1.7% | trace amounts
B3 |  |  | 160 | 16% |  | 
B4 |  |  | 95 | 9.5% |  | 
